The target in assay [1] is protein C (PC) (UniProt P04070). Briefly: derived from the shift of the Km of PC activation by thrombin on EA.hy926 endothelial cells with 2 µM rhsEPCR.
Assay [2] has the same target. Briefly: cell-based or functional assay.

Chain of protein C (PC) (P04070 43-461): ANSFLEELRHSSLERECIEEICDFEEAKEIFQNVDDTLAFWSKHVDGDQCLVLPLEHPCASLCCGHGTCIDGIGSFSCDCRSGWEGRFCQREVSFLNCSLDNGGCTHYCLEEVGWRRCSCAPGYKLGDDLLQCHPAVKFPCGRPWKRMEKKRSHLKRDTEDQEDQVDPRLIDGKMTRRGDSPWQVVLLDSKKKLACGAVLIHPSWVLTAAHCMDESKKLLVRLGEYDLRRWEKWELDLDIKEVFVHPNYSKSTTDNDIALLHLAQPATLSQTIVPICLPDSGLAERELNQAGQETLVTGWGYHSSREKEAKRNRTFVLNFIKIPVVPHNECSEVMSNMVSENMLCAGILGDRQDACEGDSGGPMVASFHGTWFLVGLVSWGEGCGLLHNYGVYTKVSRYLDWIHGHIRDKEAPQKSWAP

As usually defined, the Ki is the equilibrium dissociation constant of an inhibitor or competing ligand from its target. For the substance “recombinant human soluble EPCR (rhsEPCR) (receptor)”, in the assay with protein C (PC) [1], the Ki was determined as 70 nM. The Km of PC activation by thrombin on the surface of endothelial cells in the presence of rhsEPCR 2 µM in the assay with protein C (PC) [2] came out at 1 µM.
